# In publication PMC9889267:
# Molecular target: MLucV (pTriEx-mTFP1(cp175)-Luciferase-Venus(cp173)), purified reporter protein (firefly) [luciferase: P08659]
# Test: SEC-RALS; UMLucV (urea pre-aggregated MLucV), 1 µM, 300 µl on Superdex-200 increase; similar size profile up to 2,000 nM; oligomer of misfolded protomers
substance,measurement,value
"MLucV (pTriEx-mTFP1(cp175)-Luciferase-Venus(cp173)), purified reporter protein (from UniProt P08659 1-544)",stoichiometry N,12
